Reference: patent US20120121591A1 (priority 2009, published 2012)
Where two headings read alike, the source gives them in different places. No end group written: not given here.

B1: Bivalent Fc-L10-ShK[2-35] homodimer (Fc fusion)
chain: GGGGSGGGGSSCIDTIPKSRCTAFQCKHSMKYRLSFCRKTCGTC
modifications: not fully specified (N-terminus); ends and bridges not checked; also: homodimer via Fc
B2: Bivalent Fc-L10-ShK[1-35] homodimer (Fc fusion)
chain: GGGGSGGGGSRSCIDTIPKSRCTAFQCKHSMKYRLSFCRKTCGTC
modifications: not fully specified (N-terminus); ends and bridges not checked; also: homodimer via Fc

Key:
human Kv1.3 [1] = biological target: T1, human Kv1.3 (Homo sapiens, UniProt P22001); assay: cell-based or functional assay
T1 sequence (P22001 whole entry): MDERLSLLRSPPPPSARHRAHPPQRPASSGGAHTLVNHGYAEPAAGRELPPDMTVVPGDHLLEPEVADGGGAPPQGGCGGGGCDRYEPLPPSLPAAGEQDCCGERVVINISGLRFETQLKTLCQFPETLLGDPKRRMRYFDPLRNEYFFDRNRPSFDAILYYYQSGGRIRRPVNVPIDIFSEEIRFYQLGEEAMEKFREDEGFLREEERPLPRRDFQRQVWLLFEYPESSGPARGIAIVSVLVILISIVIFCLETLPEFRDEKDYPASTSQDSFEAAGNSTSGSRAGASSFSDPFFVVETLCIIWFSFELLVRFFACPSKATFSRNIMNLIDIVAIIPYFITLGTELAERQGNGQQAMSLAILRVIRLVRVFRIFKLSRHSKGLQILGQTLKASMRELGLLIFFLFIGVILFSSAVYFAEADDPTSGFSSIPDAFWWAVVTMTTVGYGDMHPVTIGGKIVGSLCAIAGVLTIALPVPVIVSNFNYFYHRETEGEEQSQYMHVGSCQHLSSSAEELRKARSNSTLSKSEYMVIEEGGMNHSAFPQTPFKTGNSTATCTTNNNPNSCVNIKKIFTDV

human Kv1.1 [2] = biological target: T2, human Kv1.1 (Homo sapiens, UniProt Q09470); assay: cell-based or functional assay
T2 sequence (Q09470 whole entry): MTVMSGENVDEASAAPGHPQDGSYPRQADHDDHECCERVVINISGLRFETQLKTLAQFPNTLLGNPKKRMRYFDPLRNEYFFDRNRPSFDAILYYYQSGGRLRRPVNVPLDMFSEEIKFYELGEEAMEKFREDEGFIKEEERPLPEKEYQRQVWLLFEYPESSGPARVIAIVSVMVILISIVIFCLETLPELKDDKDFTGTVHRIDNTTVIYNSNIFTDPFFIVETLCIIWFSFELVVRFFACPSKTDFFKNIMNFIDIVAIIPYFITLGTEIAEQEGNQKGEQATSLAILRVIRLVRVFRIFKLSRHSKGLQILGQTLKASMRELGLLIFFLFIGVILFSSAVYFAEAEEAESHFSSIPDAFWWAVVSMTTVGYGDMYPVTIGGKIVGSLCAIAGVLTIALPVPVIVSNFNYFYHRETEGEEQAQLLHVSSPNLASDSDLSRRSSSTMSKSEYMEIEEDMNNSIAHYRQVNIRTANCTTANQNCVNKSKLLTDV

human Kv1.3 [3] = biological target: T1, human Kv1.3; assay: cell-based or functional assay; remark: listed apart in the source
human Kv1.1 [4] = biological target: T2, human Kv1.1; assay: cell-based or functional assay; remark: listed apart in the source
[5] = tested on: IL-2 secretion from T cells in human whole blood; type: cell-based; details: read-out: WB (IL-2) IC50 (nM, Avg)
[6] = tested on: IFN-g secretion from T cells in human whole blood; type: cell-based; details: read-out: WB (IFNg) IC50 (nM, Avg)
hKv1.3 = hKv1.3 (Homo sapiens, UniProt P22001); assay: cell-based; type: cell-based; details: Kv1.3 (IWQ) IC50 (nM, Avg)
Chain of hKv1.3 (P22001 whole entry): as the sequence (P22001 whole entry) above

Molecule | Kv1.3 (IWQ) IC50 (human Kv1.3 [1]) [nM] | WB (IFNg) IC50 (human Kv1.3 [1]) [nM] | WB (IL-2) IC50 (human Kv1.3 [1]) [nM] | further results
20 kDa PEG-ShK (peptide) | 1.21 | 0.855 | 0.387 | Kv1.1 (IWQ) IC50 (human Kv1.1 [2]): 0.11 nM; Kv1.3 IC50 (whole cell patch clamp) (human Kv1.3 [3]): 0.299 nM; WB (IFNg) IC50 (human Kv1.3 [3]): 0.84 nM; WB (IL-2) IC50 (human Kv1.3 [3]): 0.38 nM; Kv1.1 IC50 (whole cell patch clamp) (human Kv1.1 [4]): 1.63 nM
20kDaPEG-[1-Nal16]ShK (peptide) | 39.1 | 100 | 100 | 
30kDaPEG-ShK (peptide) | 1.93 | 2.42 | 0.372 | Kv1.1 (IWQ) IC50 (human Kv1.1 [2]): 0.182 nM
30kPEG-[Lys16]ShK (peptide) | 0.454 |  |  | Kv1.1 (IWQ) IC50 (human Kv1.1 [2]): 33.3 nM; Kv1.3 (PX) IC50 (human Kv1.3 [3]): 1.2 nM; WB (IFNg) IC50 (human Kv1.3 [3]): 0.491 nM; WB (IL-2) IC50 (human Kv1.3 [3]): 0.282 nM; Kv1.1 (PX) IC50 (human Kv1.1 [4]): 1070 nM
CC[C@H](C)[C@@H]1NC(=O)[C@@H](NC(=O)[C@H](CO)NC(=O)[C@@H](N)CCCNC(=N)N)CSSC[C@@H](C(=O)O)NC(=O)[C@H](CCCCN)NC(=O)CNC(=O)[C@@H]2CSSC[C@@H]3NC(=O)[C@H](CCC(N)=O)NC(=O)[C@H](Cc4ccccc4)NC(=O)[C@H](C)NC(=O)[C@H]([C@@H](C)O)NC(=O)[C@H](CSSC[C@H](NC(=O)[C@H](Cc4ccccc4)NC(=O)[C@H](CO)NC(=O)[C@H](CC(C)C)NC(=O)[C@H](CCCNC(=N)N)NC(=O)[C@H](Cc4ccc(O)cc4)NC(=O)[C@H](CCCCN)NC(=O)[C@H](CCSC)NC(=O)[C@H](CO)NC(=O)[C@H](Cc4c[nH]cn4)NC(=O)[C@H](CCCCN)NC3=O)C(=O)N[C@@H](CCCNC(=N)N)C(=O)N[C@@H](CCCCN)C(=O)N[C@@H]([C@@H](C)O)C(=O)N2)NC(=O)[C@H](CCCNC(=N)N)NC(=O)[C@H](CO)NC(=O)[C@H](CCCCN)NC(=O)[C@@H]2CCCN2C(=O)[C@H]([C@@H](C)CC)NC(=O)[C@H]([C@@H](C)O)NC(=O)[C@H](CC(=O)O)NC1=O [[Lys34]ShK] |  |  |  | IC50 [5]: 0.067 nM; IC50 [6]: 0.136 nM; IC50 (hKv1.3): 0.15 nM
CCCC[C@@H]1NC(=O)[C@H](CO)NC(=O)[C@H](Cc2c[nH]cn2)NC(=O)[C@H](CCCCN)NC(=O)[C@@H]2CSSC[C@@H]3NC(=O)[C@H]([C@@H](C)O)NC(=O)[C@H](CCCCN)NC(=O)[C@H](CCCNC(=N)N)NC(=O)[C@H](CSSC[C@H](NC(=O)[C@H](CCCNC(=N)N)NC(=O)[C@H](CO)NC(=O)[C@H](CCCCN)NC(=O)[C@@H]4CCCN4C(=O)[C@H]([C@@H](C)CC)NC(=O)[C@H]([C@@H](C)O)NC(=O)[C@H](CC(=O)O)NC(=O)[C@H]([C@@H](C)CC)NC(=O)[C@@H](NC(=O)[C@H](CO)NC(=O)[C@@H](N)CCCNC(=N)N)CSSC[C@@H](C(N)=O)NC(=O)[C@H]([C@@H](C)O)NC(=O)CNC3=O)C(=O)N[C@@H]([C@@H](C)O)C(=O)N[C@@H](C)C(=O)N[C@@H](Cc3ccccc3)C(=O)N[C@@H](CCC(N)=O)C(=O)N2)NC(=O)[C@H](Cc2ccccc2)NC(=O)[C@H](CO)NC(=O)[C@H](CC(C)C)NC(=O)[C@H](CCCNC(=N)N)NC(=O)[C@H](Cc2ccc(O)cc2)NC(=O)[C@H](CCCCN)NC1=O [[Nle21]ShK-amide] |  |  |  | IC50 [5]: 0.325 nM; IC50 [6]: 1.13 nM; IC50 (hKv1.3): 0.04 nM
Fc.L20.FcLoop(ShK) (Fc fusion) |  |  |  | In vitro whole blood assay (inhibition of IL-2) IC50 (human Kv1.3 [1]): 2.01 nM
FcLoop(ShK).L25.Fc (Fc fusion) |  |  |  | In vitro whole blood assay (inhibition of IL-2) IC50 (human Kv1.3 [1]): 1.91 nM
FcLoopShk/FcLoopShk (bivalent Fc) (Fc fusion) |  |  |  | In vitro whole blood assay (inhibition of IL-2) IC50 (human Kv1.3 [1]): 2 nM
HmK (peptide) | 0.9 | 1.2 | 0.85 | Kv1.1 (IWQ) IC50 (human Kv1.1 [2]): 0.015 nM
Monovalent Fc/Fc-L10-ShK[2-35] heterodimer (Fc fusion) |  |  |  | WB (IFNg) IC50 (human Kv1.3 [3]): 5.2 nM; WB (IL-2) IC50 (human Kv1.3 [3]): 2.15 nM
[1-Nal1]ShK (peptide) | 0.225 | 0.247 | 0.222 | Kv1.1 (IWQ) IC50 (human Kv1.1 [2]): 0.005 nM
[1-Nal2]ShK (peptide) | 0.25 | 0.258 | 0.223 | 
[1-Nal4]ShK (peptide) | 0.15 | 0.317 | 0.274 | 
[1-Nal5]ShK (peptide) |  | 31.9 | 70.4 | 
[1-Nal6]ShK (peptide) | 0.15 | 0.962 | 0.86 | 
[1-Nal7]ShK (peptide) | 0.699 | 18 | 11.6 | 
[1-Nal10]ShK (peptide) | 0.206 | 0.255 | 0.205 | 
[1-Nal11]ShK (peptide) | 0.922 | 1.65 | 1.14 | 

Molecule | Kv1.3 (IWQ) IC50 (human Kv1.3 [1]) [nM] | WB (IFNg) IC50 (human Kv1.3 [1]) [nM] | WB (IL-2) IC50 (human Kv1.3 [1]) [nM] | further results
[1-Nal14]ShK (peptide) |  | 0.11 | 0.089 | 
[1-Nal15]ShK (peptide) | 0.072 | 0.291 | 0.184 | Kv1.1 (IWQ) IC50 (human Kv1.1 [2]): 0.009 nM
[1-Nal16]ShK (peptide) | 0.699 | 9.55 | 28.9 | 
[1-Nal18]ShK (peptide) | 0.471 | 0.375 | 0.419 | 
[1-Nal19]ShK (peptide) | 0.277 | 0.255 | 0.153 | Kv1.1 (IWQ) IC50 (human Kv1.1 [2]): 0.001 nM
[1-Nal20]ShK (peptide) | 2.11 | 100 | 100 | 
[1-Nal21]ShK (peptide) | 0.669 | 8.13 | 6.59 | 
[1-Nal23]ShK (peptide) | 3.3 | 100 | 100 | Kv1.1 (IWQ) IC50 (human Kv1.1 [2]): 3.3 nM
[1-Nal25]ShK (peptide) | 0.106 | 0.084 | 0.061 | 
[1-Nal26]ShK (peptide) | 0.352 | 0.573 | 0.357 | 
[1-Nal27]ShK (peptide) | 0.144 | 2.84 | 1.07 | 
[1-Nal29]ShK (peptide) |  | 8.08 | 4.72 | 
[1-Nal31]ShK (peptide) |  |  |  | Kv1.1 (IWQ) IC50 (human Kv1.1 [2]): 0.004 nM
[1-Nal34]ShK (peptide) | 0.077 | 0.063 | 0.018 | 
[Dab16]ShK (peptide) | 0.082 |  | 0.086 | 
[Nle21]ShK (peptide) | 0.04 | 0.303 | 0.153 | Kv1.1 (IWQ) IC50 (human Kv1.1 [2]): 0.015 nM
B1 |  |  |  | Kv1.3 IC50 (whole cell patch clamp) (human Kv1.3 [3]): 0.116 nM; WB (IFNg) IC50 (human Kv1.3 [3]): 2.29 nM; WB (IL-2) IC50 (human Kv1.3 [3]): 0.585 nM; Kv1.1 IC50 (whole cell patch clamp) (human Kv1.1 [4]): 0.411 nM
B2 |  |  |  | Kv1.3 IC50 (whole cell patch clamp) (human Kv1.3 [3]): 0.015 nM; WB (IFNg) IC50 (human Kv1.3 [3]): 0.32 nM; WB (IL-2) IC50 (human Kv1.3 [3]): 0.386 nM; Kv1.1 IC50 (whole cell patch clamp) (human Kv1.1 [4]): 0.067 nM
